# Experimental data: IntAct's records for PubMed 16227972
# B1: Gigaxonin (Homo sapiens), Q9H2C0 (parent)
# chain: MAEGSAVSDPQHAARLLRALSSFREESRFCDAHLVLDGEEIPVQKNILAAASPYIRTKLNYNPPKDDGSTYKIELEGISVMVMREILDYIFSGQIRLNEDTIQDVVQAADLLLLTDLKTLCCEFLEGCIAAENCIGIRDFALHYCLHHVHYLATEYLETHFRDVSSTEEFLELSPQKLKEVISLEKLNVGNERYVFEAVIRWIAHDTEIRKVHMKDVMSALWVSGLDSSYLREQMLNEPLVREIVKECSNIPLSQPQQGEAMLANFKPRGYSECIVTVGGEERVSRKPTAAMRCMCPLYDPNRQLWIELAPLSMPRINHGVLSAEGFLFVFGGQDENKQTLSSGEKYDPDANTWTALPPMNEARHNFGIVEIDGMLYILGGEDGEKELISMECYDIYSKTWTKQPDLTMVRKIGCYAAMKKKIYAMGGGSYGKLFESVECYDPRTQQWTAICPLKERRFGAVACGVAMELYVFGGVRSREDAQGSEMVTCKSEFYHDEFKRWIYLNDQNLCIPASSSFVYGAVPIGASIYVIGDLDTGTNYDYVREFKRSTGTWHHTKPLLPSDLRRTGCAALRIANCKLFRLQLQQGLFRIRVHSP
# Variants of: B1
# Settings: with uba1_human UBA1, P22314
# uba1_human UBA1, P22314, sequence (P22314 whole entry): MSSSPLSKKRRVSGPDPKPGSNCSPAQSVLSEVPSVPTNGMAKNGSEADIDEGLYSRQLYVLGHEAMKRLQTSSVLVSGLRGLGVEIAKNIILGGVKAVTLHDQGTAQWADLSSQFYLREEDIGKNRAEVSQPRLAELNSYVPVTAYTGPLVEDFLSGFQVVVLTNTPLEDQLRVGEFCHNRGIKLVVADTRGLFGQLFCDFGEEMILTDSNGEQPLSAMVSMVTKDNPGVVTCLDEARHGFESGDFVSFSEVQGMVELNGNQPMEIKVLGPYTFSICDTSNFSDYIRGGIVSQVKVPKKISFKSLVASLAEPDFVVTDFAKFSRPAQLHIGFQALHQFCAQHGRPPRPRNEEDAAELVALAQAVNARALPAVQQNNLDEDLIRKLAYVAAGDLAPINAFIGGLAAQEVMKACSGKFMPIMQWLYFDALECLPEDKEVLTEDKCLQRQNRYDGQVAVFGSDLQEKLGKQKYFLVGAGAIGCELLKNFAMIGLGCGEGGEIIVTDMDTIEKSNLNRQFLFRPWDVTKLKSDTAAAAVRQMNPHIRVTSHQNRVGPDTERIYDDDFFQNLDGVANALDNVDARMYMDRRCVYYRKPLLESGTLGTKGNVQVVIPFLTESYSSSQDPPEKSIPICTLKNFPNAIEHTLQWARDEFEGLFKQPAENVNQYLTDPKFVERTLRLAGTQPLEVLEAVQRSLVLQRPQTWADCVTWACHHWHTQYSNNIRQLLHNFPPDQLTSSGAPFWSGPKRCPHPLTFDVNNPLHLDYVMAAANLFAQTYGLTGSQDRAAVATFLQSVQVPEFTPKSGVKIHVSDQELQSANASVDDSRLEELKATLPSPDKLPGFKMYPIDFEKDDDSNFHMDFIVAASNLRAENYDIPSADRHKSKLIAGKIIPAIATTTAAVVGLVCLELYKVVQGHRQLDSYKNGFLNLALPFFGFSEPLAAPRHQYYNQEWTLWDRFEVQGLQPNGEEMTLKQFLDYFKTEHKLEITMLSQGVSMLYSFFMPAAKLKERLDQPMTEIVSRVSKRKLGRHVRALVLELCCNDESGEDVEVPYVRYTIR
row,Variant,effect of a mutation on the interaction
1,MAEGSAVSDPQHAARLLRALSSFREESRFCDAHLVLDGEEIPVQKNILAAASPYIRTKLNYNPPKDDGSTYKIELEGISVMFMREILDYIFSGQIRLNEDTIQDVVQAADLLLLTDLKTLCCEFLEGCIAAENCIGIRDFALHYCLHHVHYLATEYLETHFRDVSSTEEFLELSPQKLKEVISLEKLNVGNERYVFEAVIRWIAHDTEIRKVHMKDVMSALWVSGLDSSYLREQMLNEPLVREIVKECSNIPLSQPQQGEAMLANFKPRGYSECIVTVGGEERVSRKPTAAMRCMCPLYDPNRQLWIELAPLSMPRINHGVLSAEGFLFVFGGQDENKQTLSSGEKYDPDANTWTALPPMNEARHNFGIVEIDGMLYILGGEDGEKELISMECYDIYSKTWTKQPDLTMVRKIGCYAAMKKKIYAMGGGSYGKLFESVECYDPRTQQWTAICPLKERRFGAVACGVAMELYVFGGVRSREDAQGSEMVTCKSEFYHDEFKRWIYLNDQNLCIPASSSFVYGAVPIGASIYVIGDLDTGTNYDYVREFKRSTGTWHHTKPLLPSDLRRTGCAALRIANCKLFRLQLQQGLFRIRVHSP [V82F],decreasing interaction

# Variants of: B1
# Settings: with uba1_rat Uba1, Q5U300
# uba1_rat Uba1, Q5U300, sequence (Q5U300 whole entry): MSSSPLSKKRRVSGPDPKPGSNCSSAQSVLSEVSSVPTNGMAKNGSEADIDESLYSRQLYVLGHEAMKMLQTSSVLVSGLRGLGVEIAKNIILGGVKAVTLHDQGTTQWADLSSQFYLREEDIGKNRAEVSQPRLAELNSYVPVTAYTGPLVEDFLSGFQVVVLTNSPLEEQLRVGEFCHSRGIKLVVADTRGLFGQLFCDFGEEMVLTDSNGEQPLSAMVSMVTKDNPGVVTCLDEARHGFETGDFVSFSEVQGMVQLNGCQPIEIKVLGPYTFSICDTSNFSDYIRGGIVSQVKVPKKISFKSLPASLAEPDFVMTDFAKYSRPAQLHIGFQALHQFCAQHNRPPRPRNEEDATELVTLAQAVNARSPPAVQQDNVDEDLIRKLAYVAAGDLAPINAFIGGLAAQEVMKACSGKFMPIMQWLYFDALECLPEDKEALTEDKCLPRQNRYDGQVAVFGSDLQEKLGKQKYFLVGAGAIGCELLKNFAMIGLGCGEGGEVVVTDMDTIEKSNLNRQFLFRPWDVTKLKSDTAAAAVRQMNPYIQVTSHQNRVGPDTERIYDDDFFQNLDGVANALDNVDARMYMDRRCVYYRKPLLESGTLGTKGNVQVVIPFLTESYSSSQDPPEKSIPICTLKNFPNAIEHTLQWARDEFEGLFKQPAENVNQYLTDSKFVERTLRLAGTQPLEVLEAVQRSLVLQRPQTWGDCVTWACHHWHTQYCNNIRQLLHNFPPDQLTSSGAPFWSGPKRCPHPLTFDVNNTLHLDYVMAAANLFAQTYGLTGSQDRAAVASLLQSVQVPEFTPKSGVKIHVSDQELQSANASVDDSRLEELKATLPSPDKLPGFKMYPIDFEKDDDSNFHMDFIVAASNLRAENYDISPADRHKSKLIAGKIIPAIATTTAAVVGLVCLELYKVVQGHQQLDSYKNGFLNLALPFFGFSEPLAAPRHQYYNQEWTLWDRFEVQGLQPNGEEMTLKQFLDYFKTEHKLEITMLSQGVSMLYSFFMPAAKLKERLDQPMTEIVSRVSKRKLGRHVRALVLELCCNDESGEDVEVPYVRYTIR
row,Variant,effect of a mutation on the interaction
1,MAEGSAVSDPQHAARLLRALSSFREESRFCDAHLVLDGEEIPVQKNILAAASPYIRTKLNYNPPKDDGSTYKIELEGISVMFMREILDYIFSGQIRLNEDTIQDVVQAADLLLLTDLKTLCCEFLEGCIAAENCIGIRDFALHYCLHHVHYLATEYLETHFRDVSSTEEFLELSPQKLKEVISLEKLNVGNERYVFEAVIRWIAHDTEIRKVHMKDVMSALWVSGLDSSYLREQMLNEPLVREIVKECSNIPLSQPQQGEAMLANFKPRGYSECIVTVGGEERVSRKPTAAMRCMCPLYDPNRQLWIELAPLSMPRINHGVLSAEGFLFVFGGQDENKQTLSSGEKYDPDANTWTALPPMNEARHNFGIVEIDGMLYILGGEDGEKELISMECYDIYSKTWTKQPDLTMVRKIGCYAAMKKKIYAMGGGSYGKLFESVECYDPRTQQWTAICPLKERRFGAVACGVAMELYVFGGVRSREDAQGSEMVTCKSEFYHDEFKRWIYLNDQNLCIPASSSFVYGAVPIGASIYVIGDLDTGTNYDYVREFKRSTGTWHHTKPLLPSDLRRTGCAALRIANCKLFRLQLQQGLFRIRVHSP [V82F],decreasing interaction
